Reference: the supplement of paper PMC12764529
± gives the half width of the 95% confidence interval.

How the values were obtained:
[1] = folding stability dG unfold from chymotrypsin proteolysis; higher = more stable
How it was run: (§1)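 Designed mini-proteins with no cysteine and under 80 residues were kept only if AlphaFold2 dimer inter-PAE was above 15. In a PA-tagged cDNA display construct, they were digested with trypsin and chymotrypsin and then sequenced. K50 was inferred by Bayesian fitting of counts, and unfolding free energy was derived per protease or combined against a sequence-predicted unfolded-state K50 and a shared folded-state K50.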

[2] = folding stability dG unfold (combined trypsin and chymotrypsin); higher = more stable
How it was run: as §1

[3] = folding stability dG unfold from trypsin proteolysis; higher = more stable
How it was run: as §1

| Sequence | folding stability dG unfold [1] [kcal/mol] | folding stability dG unfold [2] [kcal/mol] | folding stability dG unfold [3] [kcal/mol] |
| --- | --- | --- | --- |
| SAGGTVTTEEVDDATYITVTKPSGETLTITAPALPDDTYLVTVYDPKTGKSTTKTVSSLDEAIKLLGSAGGS [r8_230_JUSTAS] | 1.83 ± 0.019 | 2.08 ± 0.098 | 2.2 ± 0.076 |
| SAGGVIMIPADEILDMIEQNPDEPKTIFARPNNRMVMFTLKIDPDKPDNIEIDNVWRYDPNGKGEHLPSAGG [r13_481_TrROS] | -0.475 ± 0.31 | -0.365 ± 0.22 | -0.526 ± 0.47 |
| SAGGVITAEQLRDLVKTLPPDYTIRVKVYYSTSTEEYTITPDNPIKFPPNAPTETITRIEVVEISPDSAGGS [r16_97_TrMRF] | 4.43 ± 0.045 | 4.33 ± 0.068 | 3.87 ± 0.088 |
| SAGGVLPSDPVTVTVTIPVPAANAETDGRLPPQPQTINLEIGGPSEEAIRALLEALFPPGTEYEILLSAGGS [r16_282_JUSTAS] | 0.691 ± 0.034 | 1.32 ± 0.06 | 1.77 ± 0.064 |
| SAGGVPVPPEVEYPISPEAVELAEKLAPELGAKNFKVTVVSVEPGYITVEITLPDTGKTVTVTIPLGSAGGS [r16_281_JUSTAS] | 1.987 ± 0.015 | 1.82 ± 0.053 | 1.5 ± 0.041 |
| SAGGVRYRNPLTGVEIPPDATEEERAAIARAVAKPVVLPVTVPVYVEEGDVVVPVERTFHVPLGPDGSAGGS [r16_387_TrMRF] | 0.0948 ± 0.12 | 0.206 ± 0.083 | 0.22 ± 0.085 |
| SAGGVTVSLSDPLSGNITTVPVAPNSTVTVTTSASLGGPNYTITTTVTVTLNGSTPVFTITSTVTPLSSAGG [r19_331_JUSTAS] | 3.54 ± 0.071 | 3.41 ± 0.17 | 3.08 ± 0.16 |
| SAGGVVEVEVPDLSLEEALERVREEYPDVPEFTLTLPSGERVEFRVEGDRVEVVRREPLGPRPPELESAGGS [r8_225_JUSTAS] | 1.51 ± 0.029 | 1.54 ± 0.066 | 1.63 ± 0.1 |
| SAGGVVTFLPGNLIKTTYFDPEKGTRTETLYYVPPDGTTTKLKTTVTPIPPTPLERPFFFGPDDVPVLSAGG [r13_646_JUSTAS] | 0.306 ± 0.21 | 0.474 ± 0.15 | 0.517 ± 0.059 |
| SAGGVVYYATFTIYDPKRKLPNGELAYEETPIYKKFDPKEIEKFIKELKDKLKKEGRKIKAEITKVLSAGGS [r8_10_JUSTAS] | 1.77 ± 0.29 | 1.45 ± 0.4 | 1.28 ± 0.15 |
| SAGGVWIEITFLMPAEQLLNFIKNLAEEFGYQVNIDVKIQPYPNGPMVTHEIEIKPLPPKVPEEDQESAGGS [r16_262_TrROS] | 3.99 ± 0.1 | 3.6 ± 0.16 | 2.5 ± 0.13 |
| SAGGWFTWDIPVKADDPKEAVDYAKEQIKNIMREHHPGMPPGMKIDDIKVEPPPNGWYWVKITIEIDPPSAG [r5_320_TrROS] | 2.59 ± 0.083 | 2.29 ± 0.15 | 1.83 ± 0.083 |
| SAGGWQKVEFMIEIPGGGSLDQAKDEVEEFADYLRKKAGFKDVDVDVQVDPDGWVYVMVEIEVPPNASAGGS [r8_3_TrROS] | 2.24 ± 0.042 | 1.87 ± 0.062 | 1.06 ± 0.04 |
| SAGGWYIRIKEIERNNDGVNIDIQIPDPDDPEFFENIAENLAQKLGMPKENIKIRIEPTPMPPDPEEPSAGG [r13_430_TrROS] | 0.0789 ± 0.35 | 0.247 ± 0.23 | 0.248 ± 0.13 |
| SAGGYDFDPRGEFPFPNGVKVEVWEMTWPDGNPMTMIEIEATIPPPPKPPMSPEDAKENNKDMAKNNSAGGS [r16_8_TrROS] | 0.403 ± 0.16 | 0.211 ± 0.21 | -0.415 ± 0.12 |
| SAGGYIPASARIEVLEVFEDGTVRVRVTYPDGSEAEVVARLVRTADGRVYLEIFDPRTGRLLATLELTSAGG [r13_527_TrMRF] | 3.81 ± 0.054 | 3.88 ± 0.092 | 4.09 ± 0.09 |
| SAGGYKFTIIARFDSVEEAKEWVEEIIRDIFPDNGIEVEVEVETDPENGGVYVKATIEVPPPDPDDFSAGGS [r8_17_TrROS] | 4.36 ± 0.23 | 4.01 ± 0.3 | 2.98 ± 0.17 |
| SAGGYKITIPAMFDTPEDALDQVREIARSLGYRITDIKNVEVHKHEDNGMVMVEATIKIEPLPKGQLSAGGS [r16_155_TrROS] | 2.07 ± 0.074 | 1.97 ± 0.12 | 1.77 ± 0.042 |

| Sequence | folding stability dG unfold [1] [kcal/mol] | folding stability dG unfold [2] [kcal/mol] | folding stability dG unfold [3] [kcal/mol] |
| --- | --- | --- | --- |
| SAGIEEEVRKLFPDRELEVKVKEKRLKAPNGVPVTLYEVTVTFPDGSRYKLTLTKTPNSVTLSVTPLDASAG [r14_28_JUSTAS] | 3.34 ± 0.035 | 3.18 ± 0.17 | 2.73 ± 0.2 |
| SAGIFRFPDGQEITIPYYARTPNGKITPSEIKEQIKEFLAEQPGVKITEIEVEHEDNYVRVTITVRLPKSAG [r5_688_TrROS] | 0.316 ± 0.42 | 1.01 ± 0.21 | 1.46 ± 0.14 |
| SAGISIRFPGMQIEIDEIERDNNKVVIRVEVTMPAKNPNGQPQMMTHTMWIVIKIPPPPPPADPADAKKSAG [r5_70_TrROS] | 3.96 ± 0.053 | 3.51 ± 0.23 | 2.81 ± 0.12 |
| SAGITIIIRGPDAKEAAEDIAKELLKNGFKRPITVHVLDPDGKPWYRIKIQFDPKNPGKIKVKVEPYDSAGG [r19_85_TrROS] | 3.66 ± 0.042 | 3.65 ± 0.076 | 3.39 ± 0.089 |
| SAGITITVPPGKPYYVHITMYMFDPNGKLMGPQTIMFPIRVPPDDTIEIPIPFDSPNIRITDISIMPKSAGG [r19_295_TrROS] | 2.54 ± 0.094 | 2.4 ± 0.16 | 1.98 ± 0.058 |
| SAGIVIPINNPEQAEELAKEFAPEYGYEVEIERVPPGEPLEELPPNDIIVHDPDSGWFYKIKIKRPDEKSAG [r5_173_TrROS] | 0.134 ± 0.43 | 0.29 ± 0.24 | 0.38 ± 0.1 |
| SAGKDGDPPKRVRIKFKIPLPGGKLYEVTQTFYPNGSVHVSIRFPNGWMLSAWIPPDGDIEIKIMPIKKSAG [r5_168_TrROS] | 4.3 ± 0.14 | 4 ± 0.23 | 3.37 ± 0.21 |
| SAGKEIIIPFRDIPPKYIKNQLKKFPPGKEIRIMFPGPEVADYLKEKGFPVRPERIKPITPDDMAKMMNSAG [r5_354_TrROS] | -0.186 ± 0.26 | -0.258 ± 0.28 | -0.149 ± 0.4 |
| SAGKEKEIAEAIEEFLKEKGYDVKVKLIKVNPNNPNLSKVVLEVEVLGYLPDKKPLGKKRFKLVILGGSAGG [r19_418_TrMRF] | 2.72 ± 0.046 | 2.52 ± 0.17 | 2.64 ± 0.066 |
| SAGKEKEVKEVTIKIKIYVTNKNGEKKEITIEVKAKNKEDLLEALKKLGLSVEELKEKFPNIKIVEIEPSAG [r5_430_TrROS_Hall] | 4.05 ± 0.22 | 4.01 ± 0.55 | 2.3 ± 0.22 |
| SAGKELTIEIVIERNGELITLTIKAKSEEELLEALKKLLEELGFEVEDIKIEKKDGEVIVTVTIRLPKKSAG [r5_946_TrROS_Hall] | 3.83 ± 0.081 | 3.43 ± 0.15 | 2.7 ± 0.13 |
| SAGKETVKLVVVNKETNKVVEVTFNKDGEIVSVKVFEVKPAPPPPPVELSEEQLVKTKDGKWRSLEELKSAG [r5_685_TrROS_Hall] | 1.19 ± 0.075 | 0.829 ± 0.11 | -0.369 ± 0.13 |
| SAGKIEIVEVTKNYVKIKIKNKKTNKTIEIKIPVKKKKGKKLSKEELEELAKKLAKELYPDMKIEVEKVSAG [r5_293_TrROS_Hall] | 3.86 ± 0.086 | 3.31 ± 0.27 | 2.24 ± 0.091 |
| SAGKIKIEVVKREDGYVVVKIRFEDTGEELVITVPKEDEEKVKELAEELAEKLKEEGIEVEVEVRELPPSAG [r5_815_TrROS_Hall] | 3.09 ± 0.21 | 2.86 ± 0.22 | 2.53 ± 0.11 |
| SAGKITITVEKNEDGELTVTIRIEKDGKPIEEITFESEEEALEAAKKLAEELKKKYPDLKIEVEIVPRPSAG [r5_383_TrROS_Hall] | 2.65 ± 0.22 | 3.53 ± 0.64 | 3.47 ± 0.27 |
| SAGKKIDPEALAKRILKEFGLPEDAEVEVEEIENTYIARFPEATALFTIEDDEVTVFLAPARPEPELAGSAG [r5_190_TrMRF] | 0.598 ± 0.18 | 0.881 ± 0.18 | 0.984 ± 0.11 |
| SAGKKIKLELYFEENGLKVEVEFDEETGVITVKVELKDGTRIEAKFELLPDGTLKLEIKIEKVKPGEKPSAG [r5_766_TrROS_Hall] | 3.87 ± 0.27 | 3.49 ± 0.46 | 2.94 ± 0.15 |
| SAGKKKKFKIVSVEVEVKEVNGKLVIKMKVKDKKTGKTYEITMTLKVVDKKTKKTYTKTLKVTIKLPKSAGG [r19_129_TrROS_Hall] | 4.44 ± 0.16 | 4.04 ± 0.4 | 3.46 ± 0.15 |
